These results are taken from patent US20260146077A1 (US Dept. of Health and Human Services, published 2026).

Positions count from the first letter of the chain named. Where only a bound is given, the exact number is not on record here.

B1: B1-182.1HC/182.1LC_95LTG (antibody, V domains shown)
VH: not shown
VL: EIVLTQSPGTLSLSPGERATLSCRASQSVSSSYLAWYQQKPGQAPRLLIYGASSRATGFPDRFSGSGSGTDFTLTISRLEPEDFAVYYCQQYGNLTGWTFGQGTKVEIR
B2: A23-58.1HC/58.1LC_95LTG (antibody, V domains shown)
VH: not shown
VL: B1 VL with G51S, F59I, Y88F, N94T, R109K
B3: B1-182.1HC_F100cS/182.1LC_94GLTG (antibody, V domains shown)
VH: not shown
VL: B1 VL with N94G
B4: A23-58.1HC/58.1LC_F88Y-93VGLTG (antibody, V domains shown)
VH: not shown
VL: B1 VL with G51S, F59I, G93V, N94G, R109K
B5: B1-182.1HC/182.1LC_94GLTG (antibody, V domains shown)
VH: not shown
VL: B1 VL with N94G
B6: B1-182.1HC_F100cS/182.1LC_93VGLTG (antibody, V domains shown)
VH: not shown
VL: B1 VL with G93V, N94G
B7: B1-182.1HC/182.1LC_96TG (antibody, V domains shown)
VH: not shown
VL: B1 VL with L95S
B8: A23-58.1HC/58.1LC_96TG (antibody, V domains shown)
VH: not shown
VL: B1 VL with G51S, F59I, Y88F, N94T, L95S, R109K
B9: A23-58.1HC/S2E12LC (antibody, V domains shown)
VH: not shown
VL: B1 VL with E1D, S7T, F59I, G93V, N94G, R109K
B10: A23-58.1HC_Y100cA/58.1LC_94GLTG (antibody, V domains shown)
VH: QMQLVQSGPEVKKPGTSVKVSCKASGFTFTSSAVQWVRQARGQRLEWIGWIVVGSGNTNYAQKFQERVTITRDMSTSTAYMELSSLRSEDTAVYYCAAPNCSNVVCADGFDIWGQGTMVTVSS
VL: B1 VL with G51S, F59I, Y88F, N94G, R109K
B11: A23-58.1HC_Y100cA/58.1LC_93VGLTG (antibody, V domains shown)
VH: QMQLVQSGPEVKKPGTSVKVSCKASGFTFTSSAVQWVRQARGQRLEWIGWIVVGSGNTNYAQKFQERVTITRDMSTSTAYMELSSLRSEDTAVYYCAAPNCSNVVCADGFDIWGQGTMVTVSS
VL: B1 VL with G51S, F59I, Y88F, G93V, N94G, R109K
B12: B1-182.1HC/182.1LC_93VGLTG (antibody, V domains shown)
VH: not shown
VL: B1 VL with G93V, N94G
B13: A23-58.1HC/58.1LC_F88Y-94GLTG (antibody, V domains shown)
VH: not shown
VL: B1 VL with G51S, F59I, N94G, R109K
B14: A23-58.1HC/58.1LC_93VGLT (antibody, V domains shown)
VH: not shown
VL: EIVLTQSPGTLSLSPGERATLSCRASQSVSSSYLAWYQQKPGQAPRLLIYSASSRATGIPDRFSGSGSGTDFTLTISRLEPEDFAVYFCQQYVGLTWTFGQGTKVEIK
B15: B1-182.1HC/182.1LC_93VGLT (antibody, V domains shown)
VH: not shown
VL: B14 VL with S51G, I59F, F88Y, K108R
B16: A23-58.1HC/58.1LC_96+G (antibody, V domains shown)
VH: not shown
VL: B1 VL with G51S, F59I, Y88F, N94T, L95S, T96P, R109K
B17: A23-58.1HC_Y100cA/58.1LC_93VGLT (antibody, V domains shown)
VH: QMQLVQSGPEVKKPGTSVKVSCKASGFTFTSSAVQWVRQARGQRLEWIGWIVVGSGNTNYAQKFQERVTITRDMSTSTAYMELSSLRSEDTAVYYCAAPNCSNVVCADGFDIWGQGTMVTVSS
VL: B14 VL

One experiment deals with T1, SARS-CoV-2 spike protein, BA.1 (SARS-CoV-2, UniProt P0DTC2 14-1273). Kind of experiment: cell-based or functional assay.
B1: the “BA.1 neutralization, fold improvement over B1-182.1” value is greater than 9 fold.
On to B2, for which the “BA.1 neutralization, fold improvement over A19-58.1” value was determined as 5 fold.
Consider B3, for which the “BA.1 neutralization, fold improvement over B1-182.1” value is greater than 46 fold.
As to B4, the “BA.1 neutralization, fold improvement over A19-58.1” value is greater than 10 fold.
B5: the “BA.1 neutralization, fold improvement over B1-182.1” value was greater than 13 fold.
As to B6, the “BA.1 neutralization, fold improvement over B1-182.1” value was greater than 9 fold and the “pseudovirus neutralization IC50” value worked out at 0.0228 µg/mL.
For the molecule B7, the “BA.1 neutralization, fold improvement over B1-182.1” value was greater than 9 fold.
On to B8, for which the “BA.1 neutralization, fold improvement over A19-58.1” value was greater than 3 fold.
As for B9, the “BA.1 neutralization, fold improvement over A19-58.1” value was 10 fold.
Take B10: the “BA.1 neutralization, fold improvement over A19-58.1” value is greater than 25 fold.
Still for that read-out and setting: under B11 stands greater than 6 fold.
B12: the “BA.1 neutralization, fold improvement over B1-182.1” value is greater than 17 fold.
As to B13, the “BA.1 neutralization, fold improvement over A19-58.1” value is greater than 3 fold.
For B14, the “BA.1 neutralization, fold improvement over A19-58.1” value was greater than 20 fold.

The target in the next experiment is T2, SARS-CoV-2 spike protein, B.1.617.2 (SARS-CoV-2, UniProt P0DTC2 14-1273). Kind of experiment: cell-based or functional assay.
For the molecule B1, the “neutralization IC50” value turned out to be 0.0068 µg/mL and the “neutralization IC80” value was determined as 0.0151 µg/mL.
On to B3, for which the “neutralization IC50” value came to 0.0018 µg/mL and the “neutralization IC80” value was found to be 0.0052 µg/mL.
Consider B5, for which the “neutralization IC50” value turned out to be 0.0041 µg/mL and the “neutralization IC80” value was 0.0086 µg/mL.
In the case of B7, the “neutralization IC50” value is 0.004 µg/mL and the “neutralization IC80” value was determined as 0.0084 µg/mL.
For B12, the “neutralization IC50” value was 0.0014 µg/mL and the “neutralization IC80” value turned out to be 0.0059 µg/mL.

The next experiment concerns the target T3, SARS-CoV-2 spike protein, B.1.351 (SARS-CoV-2, UniProt P0DTC2 14-1273). Kind of experiment: cell-based or functional assay.
As for B1, the “neutralization IC50” value worked out at 0.0072 µg/mL and the “neutralization IC80” value amounted to 0.014 µg/mL.
Regarding B3, the “neutralization IC50” value amounted to 0.0022 µg/mL and the “neutralization IC80” value came to 0.0049 µg/mL.
In the same order, the values of B5 are 0.0023 µg/mL and 0.0063 µg/mL.
In the same order, the values of B7 are 0.0044 µg/mL and 0.0143 µg/mL.
The corresponding values for B12 are 0.0009 µg/mL and 0.0044 µg/mL.

The target in a further experiment is T1, SARS-CoV-2 spike protein, BA.1. Kind of experiment: cell-based or functional assay. This is another data set of the same source.
As to B1, the “neutralization IC50” value is 0.0206 µg/mL and the “neutralization IC80” value was 0.118 µg/mL.
In the same order, the values of B3 are 0.0042 µg/mL and 0.0167 µg/mL.
The corresponding values for B5 are 0.0142 µg/mL and 0.0623 µg/mL.
Consider B6, for which the “neutralization IC80” value worked out at 0.0909 µg/mL.
As for B7, the “neutralization IC50” value was determined as 0.0206 µg/mL and the “neutralization IC80” value stood at 0.0857 µg/mL.
The corresponding values for B12 are 0.0115 µg/mL and 0.0396 µg/mL.
Regarding B15, the “neutralization IC50” value worked out at 0.297 µg/mL and the “neutralization IC80” value amounted to 3.19 µg/mL.

For the next experiment, the target named is T2, SARS-CoV-2 spike protein, B.1.617.2. In words: cell-based or functional assay. The source holds these as a separate data set.
For the molecule B2, the “neutralization IC50” value was found to be 0.0028 µg/mL and the “neutralization IC80” value was 0.0116 µg/mL.
In the case of B16, the “neutralization IC50” value came out at 0.0046 µg/mL and the “neutralization IC80” value was determined as 0.0112 µg/mL.
The corresponding values for B4 are 0.006 µg/mL and 0.0162 µg/mL.
The corresponding values for B8 are 0.0054 µg/mL and 0.0131 µg/mL.
Take B9: the “neutralization IC50” value came out at 0.0022 µg/mL and the “neutralization IC80” value stood at 0.0076 µg/mL.
For the molecule B10, the “neutralization IC50” value came to 0.0131 µg/mL and the “neutralization IC80” value came out at 0.0165 µg/mL.
In the same order, the values of B11 are 0.003 µg/mL and 0.0098 µg/mL.
For B13, the “neutralization IC50” value is 0.0063 µg/mL and the “neutralization IC80” value worked out at 0.0188 µg/mL.
Turning to B14, the “neutralization IC50” value was 0.0009 µg/mL and the “neutralization IC80” value worked out at 0.0024 µg/mL.

For a further experiment, the target named is T3, SARS-CoV-2 spike protein, B.1.351. In words: cell-based or functional assay. The source holds these as a separate data set.
As for B2, the “neutralization IC50” value worked out at 0.0035 µg/mL and the “neutralization IC80” value was 0.0091 µg/mL.
The corresponding values for B16 are 0.0105 µg/mL and 0.0292 µg/mL.
For B4, the “neutralization IC50” value came out at 0.0023 µg/mL and the “neutralization IC80” value was found to be 0.0088 µg/mL.
For the molecule B8, the “neutralization IC50” value is 0.0027 µg/mL and the “neutralization IC80” value was 0.0066 µg/mL.
With B9, the “neutralization IC50” value came to 0.0035 µg/mL and the “neutralization IC80” value was determined as 0.0079 µg/mL.
Take B10: the “neutralization IC50” value stood at 0.0023 µg/mL and the “neutralization IC80” value was 0.0063 µg/mL.
Regarding B11, the “neutralization IC50” value was 0.0011 µg/mL and the “neutralization IC80” value was found to be 0.0043 µg/mL.
The corresponding values for B13 are 0.0044 µg/mL and 0.0116 µg/mL.
In the same order, the values of B14 are 0.001 µg/mL and 0.0032 µg/mL.

The target of a further experiment is T1, SARS-CoV-2 spike protein, BA.1. In words: cell-based or functional assay. This is another data set of the same source.
With B2, the “neutralization IC50” value is 0.0214 µg/mL and the “neutralization IC80” value is 0.0454 µg/mL.
In the same order, the values of B16 are 0.133 µg/mL and 0.917 µg/mL.
The corresponding values for B4 are 0.0093 µg/mL and 0.0426 µg/mL.
In the same order, the values of B8 are 0.0294 µg/mL and 0.0658 µg/mL.
On to B9, for which the “neutralization IC50” value stood at 0.0098 µg/mL and the “neutralization IC80” value was 0.0311 µg/mL.
The corresponding values for B10 are 0.0038 µg/mL and 0.016 µg/mL.
For the molecule B11, the “neutralization IC50” value was found to be 0.0155 µg/mL and the “neutralization IC80” value is 0.0419 µg/mL.
The corresponding values for B13 are 0.0261 µg/mL and 0.0919 µg/mL.
B14: the “neutralization IC50” value was found to be 0.0048 µg/mL and the “neutralization IC80” value turned out to be 0.0187 µg/mL.
B17: the “neutralization IC50” value is 0.306 µg/mL and the “neutralization IC80” value came out at 2.54 µg/mL.

In a further experiment the target is SARS-CoV-2 spike protein, BA.1.1 (SARS-CoV-2, UniProt P0DTC2 14-1273). Kind of experiment: cell-based or functional assay.
Regarding B9, the “neutralization IC50” value was 0.0038 µg/mL and the “neutralization IC80” value was 0.0158 µg/mL.

The next experiment concerns the target SARS-CoV-2 spike protein, BA.2 (SARS-CoV-2, UniProt P0DTC2 14-1273). In words: cell-based or functional assay.
On to B9, for which the “neutralization IC50” value was found to be 0.0067 µg/mL and the “neutralization IC80” value came out at 0.0269 µg/mL.

Another experiment addresses SARS-CoV-2 spike protein, BA.2.12.1 (SARS-CoV-2, UniProt P0DTC2 14-1273). In words: cell-based or functional assay.
With B4, the “neutralization IC50” value is 0.0099 µg/mL and the “neutralization IC80” value stood at 0.0422 µg/mL.
B9: the “neutralization IC50” value was determined as 0.0566 µg/mL and the “neutralization IC80” value is 0.201 µg/mL.
The corresponding values for B10 are 0.0193 µg/mL and 0.051 µg/mL.
For B11, the “neutralization IC50” value worked out at 0.0242 µg/mL and the “neutralization IC80” value was found to be 0.0621 µg/mL.
In the case of B13, the “neutralization IC50” value was 0.0417 µg/mL and the “neutralization IC80” value worked out at 0.0956 µg/mL.
The corresponding values for B14 are 0.0091 µg/mL and 0.0431 µg/mL.
As for B17, the “neutralization IC50” value came out at 0.48 µg/mL and the “neutralization IC80” value is 2.05 µg/mL.
